Residue numbers refer to the chain shown, from its start. Numbers in names are those of the source.
B1: OaPAC (Oxynema acuminatum PCC 6304; D67N) (protein)
chain: MKRLTYISKFSRPLSGDEIEAIGRISSQKNQQANVTGVLLCLDGIFFQILEGEAEKIDRIYERILANERHTDILCLKSEVEVQERMFPDWSMQTINLDENTDFLIRPIKVLLQTLTESHRILEKYTQPSIFKIISQGTNPLNIRPKAVEKIVFFSDIVSFSTFAEKLPVEEVVSVVNSYFSVCTAIITRQGGEVTKFIGDCVMAYFDGDCADQAIQASLDILMELEILRNSAPEGSPLRVLYSGIGLAKGKVIEGNIGSELKRDYTILGDAVNVAARLEALTRQLSQALVFSSEVKNSATKSWNFIWLTDSELKGKSESIDIYSIDNEMTRKSSGGLEIARNIGHYLERVGDRQPSQIFGVKSLPL
notes: full-length, 366 residues, homodimer; N-terminal BLUF domain and C-terminal class III AC domain; pCold-I (Ni-NTA purified), E. coli BL21(DE3); Superdex 200
B2: OaPAC (Oxynema acuminatum PCC 6304) (protein)
chain: B1 chain with N67D
notes: as for B1

Substrate: Nc1ncnc2c1ncn2[C@@H]1O[C@H](COP(=O)(O)OP(=O)(O)OP(=O)(O)O)[C@@H](O)[C@H]1O
Test: EnzChek pyrophosphate coupled assay, A360, Michaelis-Menten fit
Format: biochemical, Oxynema acuminatum
Conditions: continuous illumination; 0-500 μM ATP; 1 μM enzyme
Source text: EnzChek pyrophosphate coupled assay, A360, Michaelis-Menten fit on OaPAC

Protein	Km [µM]	Vmax [mM/min]	kcat [s⁻¹]
B1	41 ± 5	0.100 ± 0.002	0.8342
B2	31 ± 1	0.064 ± 0.007	0.537

Reference: paper PMC10448171, “Photocycle alteration and increased enzymatic activity in genetically modified photoactivated adenylate cyclase OaPAC” (The Journal of Biological Chemistry, 2023)
